Assay results: the RNAGym collection of RNA variant scans (doi:10.7554/elife.80360)

B1: CPEB3 Ribozyme (parent)
chain: GGGGGCCACAGCAGAAGCGUUCACGUCGCGGCCCCUGUCAGAUUCUGGUGAAUCUGCGAAUUCUGCUGU

Variants of: B1
Experiment: self-cleavage, relative activity (ratio to wild type); higher = more cleavage; co-transcriptional

Row | Variant | self-cleavage
1 | GGGGGCCACAGCAGAAGCGUUCACGUCGCGGCGGCUGUCAGAUUCUGGUGAAUCUGCGAAUUCUGCUGU | 0.217
2 | GGGGGCCACAGCAGAAGCGUUCACGUCGCGGCGACUGUCAGAUUCUGGUGAAUCUGCGAAUUCUGCUGU | 0.253
3 | GGGGGCCACAGCAGAAGCGUUCACGUCGCGGUCCCCGUCAGAUUCUGGUGAAUCUGCGAAUUCUGCUGU | 0.973
4 | GGGGGCCACAGCAGAAGCGUUCACGUCGCGGUCCCAGUCAGAUUCUGGUGAAUCUGCGAAUUCUGCUGU | 0.216
5 | GGGGGCCACAGCAGAAGCGUUCACGUCGCGGCACCUGUCAGAUUCUGAUGAAUCUGCGAAUUCUGCUGU | 0.95
6 | GGGGGCCACAGCAGAAGCGUUCACGUCGCGGCACCUGUCAGAAUCUGGUGAAUCUGCGAAUUCUGCUGU | 0.311
7 | GGGGGCCACAGCAGAAGCGUUCACGUCGCGGCACCUGUCAGAUUCUGGUGAAUCUGCGAAUUCUGCUGU | 0.916
8 | GGGGGCCACAGCAGAAGCGUUCACGUCGCGGCGCCUGUCAGAUUCUGGUGAAUCUGCGAAUUCUGCUGU | 0.668
9 | GGGGGCCACAGCAGAAGCGUUCACGUCGCGGCACCUGACAGAUUCUGGUGAAUCUGCGAAUUCUGCUGU | 0.804
10 | GGGGGCCACAGCAGAAGCGUUCACGUCGCGGCACCUGCCAGAUUCUGGUGAAUCUGCGAAUUCUGCUGU | 0.72
11 | GGGGGCCACAGCAGAAGCGUUCACGUCGCGGCACCUGUCAGAUUCGGGUGAAUCUGCGAAUUCUGCUGU | 0.737
12 | GGGGGCCACAGCAGAAGCGUUCACGUCGCGGCACCUGUCAGAUUCCGGUGAAUCUGCGAAUUCUGCUGU | 0.847
13 | GGGGGCCACAGCAGAAGCGUUCACGUCGCGGCACCUGUCAGAUUCAGGUGAAUCUGCGAAUUCUGCUGU | 0.617
14 | GGGGGCCACAGCAGAAGCGUUCACGUCGCGGUCCCUGUCAGAUUCUGGUGAAUCUGCGAAUCCUGCUGU | 0.955
15 | GGGGGCCACAGCAGAAGCGUUCACGUCGCGGUCCCUGUCAGAUUCUGGUGAAUCUGCGAAUACUGCUGU | 0.979
16 | GGGGGCCACAGCAGAAGCGUUCACGUCGCGGCACCUGUCAGAUUCUGGUGAAUCUGCGAAUCCUGCUGU | 0.584
17 | GGGGGCCACAGCAGAAGCGUUCACGUCGCGGCACCUGUCAGAUUCUGGUGAAUCUGCGAAUGCUGCUGU | 0.559
18 | GGGGGCCACAGCAGAAGCGUUCACGUCGCGGCACCUGUCAGAUUCUGGUGAAUCUGCGAAUUCUGCUCU | 0.967
19 | GGGGGCCACAGCAGAAGCGUUCACGUCGCGGCGCCUGUCAGAUUCUGGUGCAUCUGCGAAUUCUGCUGU | 0.335
20 | GGGGGCCACAGCAGAAGCGUUCACGUCGCGGCGCCUGUCAGAUUCUGGUGAAUCUGCGAAUUAUGCUGU | 0.323

Row | Variant | self-cleavage
21 | GGGGGCCACAGCAGAAGCGUUCACGUCGCGGUCCCUGUCAGAUUCUGGUGAAUCUGCGAAAUCUGCUGU | 0.893
22 | GGGGGCCACAGCAGAAGCGUUCACGUCGCGGCGCCUGUCAGAUUCUGGUGAAUCUGCGUAUUCUGCUGU | 0.362
23 | GGGGGCCACAGCAGAAGCGUUCACGUCGCGGCGCCUGUCAGAUUCUGGUGAAUCUGCGGAUUCUGCUGU | 0.516
24 | GGGGGCCACAGCAGAAGCGUUCACGUCGCGGCACCUGUCAGAUUCUGGUGAAUCUACGAAUUCUGCUGU | 0.758
25 | GGGGGCCACAGCAGAAGCGUUCACGUCGCGGCGCCUGUCAGAUUCUGGUGAAUAUGCGAAUUCUGCUGU | 0.369
26 | GGGGGCCACAGCAGAAGCGUUCACGUCGCGGUCCCUGUCAGAUUCUGGUGAAUCUGCCAAUUCUGCUGU | 0.963
27 | GGGGGCCACAGCAGAAGCGUUCACGUCGCGGUCCCUGUCAGAUUCUGGUGAAUCUGCUAAUUCUGCUGU | 0.995
28 | GGGGGCCACAGCAGAAGCGUUCACGUCGCGGCACCUGUCAGAUUCUGGUGAAUCUGCGAAGUCUGCUGU | 0.5
29 | GGGGGCCACAGCAGAAGCGUUCACGUCGCGGCACCUGUCACAUUCUGGUGAAUCUGCGAAUUCUGCUGU | 0.343
30 | GGGGGCCACAGCAGAAGCGUUCACGUCGCGGCACCUGUCAGAUUCUGGUGAAUCUGCGAAUUCUGCCGU | 0.928
31 | GGGGGCCACAGCAGAAGCGUUCACGUCGCGGUCCCUGUCAGAUUCUGGGGAAUCUGCGAAUUCUGCUGU | 1.01
32 | GGGGGCCACAGCAGAAGCGUUCACGUCGCGGUCCCUGUCAGAUUCUGGCGAAUCUGCGAAUUCUGCUGU | 1
33 | GGGGGCCACAGCAGAAGCGUUCACGUCGCGGCACCUGUCAGAUUCUGGUGAAUCUGUGAAUUCUGCUGU | 0.343
34 | GGGGGCCACAGCAGAAGCGUUCACGUCGCGGCACCUGUCAGAUUCUUGUGAAUCUGCGAAUUCUGCUGU | 0.961
35 | GGGGGCCACAGCAGAAGCGUUCACGUCGCGGCGCCUGUCAGAUUCUGGUGAUUCUGCGAAUUCUGCUGU | 0.444
36 | GGGGGCCACAGCAGAAGCGUUCACGUCGCGGUCCCUGUCAGAUUCUGGUGAACCUGCGAAUUCUGCUGU | 0.875
37 | GGGGGCCACAGCAGAAGCGUUCACGUCGCGGCACCUGUCAGAUUCUGGUGAAUCUGCGGAUUCUGCUGU | 0.738
38 | GGGGGCCACAGCAGAAGCGUUCACGUCGCGGCACCUGUCAGAUUCUGGUGAAUCUGCGUAUUCUGCUGU | 0.475
39 | GGGGGCCACAGCAGAAGCGUUCACGUCGCGGCGCUUGUCAGAUUCUGGUGAAUCUGCGAAUUCUGCUGU | 0.184
